Assay results as given in patent US20110200615A1 (published 2011).

B1: 4B6 scFv (yeast displayed) (scFv)
chain: QVQLVQSGAEVKKPGESLVISCKASGDKDTFTSFWIAWVRQMPGKGLEWMGIIYAGDSDTRYSPSFQGHVNISVDRSTNTAYLQWSSLKASDTAMYYCARHDSRYKYFYFGMDVWGQGTTVTVSSGGGGSGGGGSGGGGSDVVMTQSPSSLSASVGDRITITCQAGQDISNFLNWYQQKPGKAPKLLIRDASNLETGVPSRFSGGGSGTHFTFTISSLHPEDIATYFCQQYDNLPYTFGQGTKLEIK
B2: 4B7 scFv (yeast displayed) (scFv)
chain: QVQLQQSGPGLVKPSQTLSLTCSVSGGSINSDGSYWSWVRQHPGKGLEWIGYIYYSGTTYFNPSLKSRLTMSVDTSKNQFSLKMTSVTAADTAVYYCARMSGSRSYSQYYFDSWGQGTLVTVSSGGGGSGGGGSGGGGSDIQMTQSPSSLSASVGDRVTITCRASQSISSYLNWYQQKPGTAPKLLISDASTLQSGVPSRFSGSGSGTEFTLTISNLQPEDFATYYCQQFNSYVWTFGQGTKLEIK
B3: 4B19.1 IgG (antibody, V domains shown)
VH: QVQLVQSGAEVKKPGASVNVSCKASGYTFTGYYIYWVRQAPGQGLEWMGWINPNSGVTKYAQKFQGRVTMTIDTSTNTAYMELNRLRADDTAVYYCAREWTQLWSPYDYWGQGTTVTVSS
VL: DIVLTQSPSTLSASVGDRVTISCRASRSIGWYLNWYQQRPGKAPKLLIYAASSLHNGVPSRFSGSGSGTEFTLTISSLQPDDFATYYCQQAFGFPRTFGQGTKVEIKR
B4: 1B14 scFv (yeast displayed) (scFv)
chain: EVQLVESGGGLVQPGGSLRLSCAASGFTFSSYSMNWVRQAPGKGLEWVAVIWYDGSNKYYADSVKGRFTISRDNSKNTLYLQMNSLRAEDTAVYYCARSSIVGAPYGMDVWGQGTTVTVSSGGGGSGGGGSGGGGSEIVLTQSPSSLSAAVGDRVTITCRASQNIYSYLNWYQQKLGKAPNLLIYAVFSLQSGVPSRFSGSGYGTDFTLTISSLQPEDFATYYCQQSSSSPLTFGGGTKVEIK

What was measured:
[1] = target: T1, Botulinum neurotoxin type B, subtype B3 (BoNT/B3) (Clostridium botulinum); test: flow cytometry; yeast-displayed scFv, soluble toxin
[2] = target: T2, Botulinum neurotoxin type B, subtype B4 (BoNT/B4) (Clostridium botulinum); test: as above
[3] = target: T1, Botulinum neurotoxin type B, subtype B3 …; test: KinExA flow fluorimetry; IgG in solution
[4] = target: T2, Botulinum neurotoxin type B, subtype B4 …; test: KinExA flow fluorimetry; IgG in solution

Row | Binder | Kd [1] [nM] | Kd [2] [nM] | Kd [3] [nM] | Kd [4] [nM]
1 | B1 | 1.08 | 1.61 | – | –
2 | B2 | 25.1 | 10 | – | –
3 | B3 | – | – | 0.156 | 0.194
4 | B4 | – | 2.12 | – | –
